# Laboratory results published in the supplement of paper PMC10567573.
# B1: FCHO1 (parent)
# chain: FSDPSQSDPETKDFWLNMAALTEA
# B2: CASP6 (parent)
# chain: TCADRDNLTRRFSDLGFEVKCFND
# Variants of: B1
# Test: protein stability index of a GFP-peptide fusion (GPS, HEK-293T) (PSI 1-6); higher = more stable
# Details: c terminus: a fixed tail appended
# 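Further: lentivirally expressed fusions sorted by FACS into six bins by GFP to DsRed ratio, PSI derived from sequencing read proportions per bin multiplied by bin number.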
row,Variant,protein stability index
1,F1H,4.7
2,F1C,4.02
3,F1M,4.18
4,F1T,4.87
5,F1W,4.1
6,F1D,5.36
7,F1R,3.73
8,F1A,4.73
9,F1E,4.97
10,F1G,4.86
11,F1S,4.74
12,F1P,4.8
13,F1I,4.11
14,F1Y,3.26
15,F1V,4.86
16,F1K,4.42

row,Variant,protein stability index
1,F1L,4.25
2,F1N,4.52
3,F1Q,4.72
4,S2P,3.02
5,S2M,3.5
6,S2K,4.22
7,S2C,1.69
8,S2F,2.89
9,S2N,1.53
10,S2D,4.53
11,S2I,2.8
12,S2L,2.65
13,S2G,2.32
14,S2E,4.62
15,S2A,1.7
16,S2H,1.99

# Variants of: B2
# Test: as above
# Details: c terminus: a fixed tail appended
row,Variant,protein stability index
1,R11L,3.12
2,R11K,3.65
3,R11M,3.79
4,R11E,4.2
5,R11I,2.47
6,R11G,3.36
7,R11D,4.12
8,R11C,2.66
9,R11P,3.68
10,R11T,3.2
11,R11S,3.57
12,R11F,2.33
13,R11W,1.62
14,R11N,3.76
15,R11H,3.5
16,R11Q,3.5
17,R11Y,2.35
18,R11A,3.5
19,R11V,2.76
20,S13D,3.83
21,S13G,3
22,S13H,2.88
23,S13P,2.86
24,S13E,3.84
25,S13R,2.98
26,S13I,2.75

row,Variant,protein stability index
1,S13K,3.45
2,S13M,2.71
3,S13F,2.7
4,S13W,2.36
5,S13N,3.44
6,S13V,2.32
7,S13Y,2.7
8,S13C,2.67
9,S13L,2.71
10,S13T,2.58
11,S13A,3.46
12,S13Q,3.65
13,D24H,2.95
14,D24W,2.14
15,D24A,2.21
16,D24I,1.87
17,D24P,3.24
18,D24C,2.41
19,D24Q,3.24
20,D24G,2.66
21,D24E,2.94
22,D24M,2.6
23,D24R,2.67
24,D24K,3.02
25,D24F,2.11
26,D24N,2.97

row,Variant,protein stability index
1,D24S,2.57
2,D24V,1.23
3,D24T,2.54
4,D24Y,2.04
5,D24L,2.17
6,E18T,3.05
7,E18F,1.78
8,E18G,2.87
9,E18V,2.82
10,E18A,3.25
11,E18W,2.55
12,E18D,3.86
13,E18K,3.3
14,E18N,3.44
15,E18I,2.65
16,E18Q,3.1
17,E18Y,2.29
18,E18M,2.22
19,E18H,2.48
20,E18S,2.89
21,E18R,3.14
22,E18P,3.49
23,E18C,2.76
24,R10S,3.29
25,R10G,3.48
26,R10F,2.98

row,Variant,protein stability index
1,R10Q,3.33
2,R10D,3.96
3,R10H,3.16
4,R10A,3.59
5,R10T,3.61
6,R10P,3.39
7,R10V,3.2
8,R10E,3.83
9,R10C,2.59
10,R10N,3.56
11,R10M,2.83
12,R10L,3.07
13,R10W,2.17
14,R10Y,2.65
15,R10I,2.48
16,R10K,3.75
17,F17E,4.52
18,F17L,4.16
19,F17S,4.17
20,F17V,3.61
21,F17A,3.7
22,F17M,3.58
23,F17Q,4.29
24,F17T,3.75
25,F17P,4.04
26,F17I,3.54

row,Variant,protein stability index
1,F17R,2.95
2,F17K,3.37
3,F17D,4.8
4,F17N,4.26
5,F17H,3.47
6,F17W,2.44
7,F17G,4.34
8,F17C,3.36
9,F17Y,2.62
10,V19G,4.08
11,V19C,1.95
12,V19N,3.9
13,V19Q,3.85
14,V19W,2.76
15,V19R,3.48
16,V19S,3.8
17,V19T,4.24
18,V19D,4.93
19,V19H,3.36
20,V19I,3.44
21,V19M,3.49
22,V19L,2.57
23,V19Y,3.5
24,V19F,2.69
25,V19A,3.62
26,V19K,3.94

row,Variant,protein stability index
1,V19E,4.31
2,V19P,4.38
3,G16S,3.26
4,G16E,3.83
5,G16N,3.61
6,G16D,3.33
7,G16C,3.18
8,G16F,2.03
9,G16V,1.92
10,G16P,3.54
11,G16Q,3.31
12,G16H,2.84
13,G16K,2.68
14,G16R,3.13
15,G16I,1.92
16,G16M,2.14
17,G16Y,2.27
18,G16A,2.99
19,G16T,3.04
20,G16W,1.93
21,G16L,1.89
22,N23I,2.49
23,N23H,2.71
24,N23K,3.41
25,N23Y,2.34
26,N23F,2.51

row,Variant,protein stability index
1,N23E,4.66
2,N23C,1.8
3,N23V,2.81
4,N23L,3.8
5,N23Q,3.12
6,N23S,3.66
7,N23P,3.61
8,N23D,3.41
9,N23A,3.52
10,N23M,2.98
11,N23G,3.23
12,N23R,3.89
13,N23T,3.28
14,N23W,1.41
15,F22W,3.28
16,F22D,4.95
17,F22N,4.58
18,F22I,3.9
19,F22P,4.32
20,F22G,3.37
21,F22K,4.72
22,F22E,4.46
23,F22A,4.54
24,F22Q,4.15
25,F22R,3.73
26,F22L,3.89

row,Variant,protein stability index
1,F22M,3.96
2,F22H,3.86
3,F22S,3.84
4,F22Y,3.98
5,F22C,3.83
6,F22V,3.93
7,F22T,4.73
8,F12T,3.96
9,F12N,4.35
10,F12C,3.08
11,F12K,4.1
12,F12A,4.07
13,F12H,4.07
14,F12D,4.23
15,F12S,4.08
16,F12M,3.42
17,F12Q,3.97
18,F12G,3.81
19,F12I,2.98
20,F12L,3.33
21,F12E,4.7
22,F12Y,3.45
23,F12P,4.32
24,F12R,3.35
25,F12V,4.21
26,F12W,3.1

row,Variant,protein stability index
1,L15V,3.15
2,L15G,3.69
3,L15W,2.75
4,L15E,4.57
5,L15F,3.07
6,L15K,4.11
7,L15M,3.85
8,L15T,4.13
9,L15Q,3.43
10,L15S,4.02
11,L15A,3.16
12,L15N,3.94
13,L15R,3.27
14,L15I,2.91
15,L15D,3.92
16,L15P,4.59
17,L15C,2.58
18,L15Y,3.02
19,L15H,3.65
20,T9H,3.03
21,T9S,3.25
22,T9V,3.58
23,T9R,3.36
24,T9K,3.12
25,T9N,2.83
26,T9I,2.69

row,Variant,protein stability index
1,T9G,3.47
2,T9F,1.94
3,T9P,3.62
4,T9Y,2.41
5,T9M,2.54
6,T9W,2.34
7,T9Q,3.49
8,T9E,3.75
9,T9C,2.87
10,T9D,3.51
11,T9L,3.12
12,K20P,3.58
13,K20E,3.6
14,K20W,2.56
15,K20Y,2.2
16,K20V,2.83
17,K20F,2.87
18,K20H,2.89
19,K20C,2.75
20,K20G,3.54
21,K20N,3.75
22,K20L,3
23,K20R,3.32
24,K20Q,3.37
25,K20S,3.17
26,K20T,3.15

row,Variant,protein stability index
1,K20I,2.42
2,K20M,2.57
3,K20A,3.76
4,K20D,4.14
5,D14M,1.97
6,D14E,3.34
7,D14K,3.36
8,D14N,3.8
9,D14C,2.91
10,D14L,2.5
11,D14P,2.47
12,D14T,2.27
13,D14G,3.46
14,D14Q,2.93
15,D14S,2.46
16,D14I,2.79
17,D14Y,2.46
18,D14A,3.23
19,D14H,2.4
20,D14R,2.45
21,D14F,2.07
22,D14V,2.43
23,D14W,1.97
24,C21I,2.52
25,C21P,3.17
26,C21M,3.2

row,Variant,protein stability index
1,C21V,2.67
2,C21F,2.16
3,C21R,3.72
4,C21G,3.5
5,C21Q,4.05
6,C21N,3.82
7,C21Y,2.97
8,C21H,3.72
9,C21T,3.98
10,C21A,3.53
11,C21S,4.01
12,C21E,4.3
13,C21D,4.17
14,C21W,2.63
15,C21K,4.2
16,C21L,2.85
